Experimental data as given in patent US20090291890A1 (published 2009).
One block for each molecule: values may come before it.

How the values were obtained:
[1] = molecular target: Factor X (FX) (Homo sapiens (Human)) (UniProt P00742)
[2] = molecular target: Factor X (FX) (Homo sapiens (Human)) (UniProt P00742); remark: listed apart in the source
[3] = molecular target: Factor X (FX) (Homo sapiens (Human)) (UniProt P00742); remark: listed apart in the source
[4] = molecular target: T1, soluble tissue factor (recombinant human Coagulation Factor III/soluble tissue factor; R&D Systems) (human); experiment: SPR (Biacore T100), sTF on chip, two-state fit
T1 chain: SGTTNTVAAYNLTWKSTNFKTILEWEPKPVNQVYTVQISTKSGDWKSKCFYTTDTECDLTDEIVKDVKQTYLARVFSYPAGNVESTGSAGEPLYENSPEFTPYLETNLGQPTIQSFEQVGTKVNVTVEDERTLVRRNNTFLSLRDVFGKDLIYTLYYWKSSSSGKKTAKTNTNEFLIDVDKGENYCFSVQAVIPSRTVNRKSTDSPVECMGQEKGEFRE

[5] = molecular target: T1, soluble tissue factor (recombinant …); experiment: SPR (Biacore T100), sTF on chip, two-state fit; FVIIa made in CHOX cells
[6] = molecular target: T1, soluble tissue factor (recombinant …); experiment: SPR (Biacore T100), sTF on chip, two-state fit; FVIIa made in CHOX stable cell line clone 52-5F7
[7] = molecular target: T2, soluble tissue factor (sTF) (human); experiment: SPR (Biacore T100), sTF on CM5 chip, 1:1 fit; FVIIa from BHK cells
T2 chain: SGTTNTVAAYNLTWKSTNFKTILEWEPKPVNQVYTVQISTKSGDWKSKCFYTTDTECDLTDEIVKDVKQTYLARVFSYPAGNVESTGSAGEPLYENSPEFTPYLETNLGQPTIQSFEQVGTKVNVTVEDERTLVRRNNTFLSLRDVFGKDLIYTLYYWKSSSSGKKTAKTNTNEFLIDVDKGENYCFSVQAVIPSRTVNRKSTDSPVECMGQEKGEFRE

Chain of Factor X (FX) (Homo sapiens (Human)) (P00742 41-488 limits assumed): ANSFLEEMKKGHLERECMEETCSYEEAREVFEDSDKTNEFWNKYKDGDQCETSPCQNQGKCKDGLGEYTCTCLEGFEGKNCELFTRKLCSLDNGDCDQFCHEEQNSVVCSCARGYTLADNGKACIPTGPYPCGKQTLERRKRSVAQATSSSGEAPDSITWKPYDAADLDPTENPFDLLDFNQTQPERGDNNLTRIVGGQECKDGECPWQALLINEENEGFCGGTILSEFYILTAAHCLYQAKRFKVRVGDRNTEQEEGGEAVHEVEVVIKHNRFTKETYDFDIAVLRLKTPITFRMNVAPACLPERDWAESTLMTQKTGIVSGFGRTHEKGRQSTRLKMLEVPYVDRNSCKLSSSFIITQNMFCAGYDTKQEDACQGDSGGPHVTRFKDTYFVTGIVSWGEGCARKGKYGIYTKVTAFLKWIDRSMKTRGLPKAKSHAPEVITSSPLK

catalytic activity, kcat/Km (M^-1sec^-1), for FX activation in the presence of lipidated TF [1]: 1.8e+07 M⁻¹ s⁻¹
Molecule: wild-type Factor VIIa (FVIIa) (enzyme)

TF-dependent catalytic activity, kcat/Km, for the substrate FX ([2]; scale: times that of the wild type FVII polypeptide): > 6
Molecule: Gla swap FIX/Q286R/M298Q FVIIa (enzyme)

TF-independent catalytic activity, kcat/Km, for the substrate FX (times wild-type FVIIa) [2]: > 9
Molecule: Gla swapFIX/Q366V FVIIa (enzyme)

kcat/KM, TF-Dependent Indirect Assay [3]: 1.85e+08 M⁻¹ s⁻¹
Affinity Kd-WT/Kd-mut [4]: 1.9
Kd [4]: 4.1 nM
Affinity Kd-WT/Kd-mut [5]: 1.1
Kd [5]: 3.6 nM
Kd [6]: 3.2 nM
B1: FVIIa Q286R/M298Q (enzyme)
chain: ANAFLEELRPGSLERECKEEQCSFEEAREIFKDAERTKLFWISYSDGDQCASSPCQNGGSCKDQLQSYICFCLPAFEGRNCETHKDDQLICVNENGGCEQYCSDHTGTKRSCRCHEGYSLLADGVSCTPTVEYPCGKIPILEKRNASKPQGRIVGGKVCPKGECPWQVLLLVNGAQLCGGTLINTIWVVSAAHCFDKIKNWRNLIAVLGEHDLSEHDGDEQSRRVAQVIIPSTYVPGTTNHDIALLRLHQPVVLTDHVVPLCLPERTFSERTLAFVRFSLVSGWGRLLDRGATALELQVLNVPRLMTQDCLQQSRKVGDSPNITEYMFCAGYSDGSKDSCKGDSGGPHATHYRGTWYLTGIVSWGQGCATVGHFGVYTRVSQYIEWLQKLMRSEPRPGVLLRAPFP

Kd [7]: 3.1 nM
B2: H257A/M298Q-FVIIa (enzyme)
light: ANAFLEELRPGSLERECKEEQCSFEEAREIFKDAERTKLFWISYSDGDQCASSPCQNGGSCKDQLQSYICFCLPAFEGRNCETHKDDQLICVNENGGCEQYCSDHTGTKRSCRCHEGYSLLADGVSCTPTVEYPCGKIPILEKRNASKPQGR
heavy: IVGGKVCPKGECPWQVLLLVNGAQLCGGTLINTIWVVSAAHCFDKIKNWRNLIAVLGEHDLSEHDGDEQSRRVAQVIIPSTYVPGTTNHDIALLRLHQPVVLTDAVVPLCLPERTFSERTLAFVRFSLVSGWGQLLDRGATALELQVLNVPRLMTQDCLQQSRKVGDSPNITEYMFCAGYSDGSKDSCKGDSGGPHATHYRGTWYLTGIVSWGQGCATVGHFGVYTRVSQYIEWLQKLMRSEPRPGVLLRAPFP

Kd [7]: 7.3 nM
B3: Q286R/S222A-FVIIa (enzyme)
light: ANAFLEELRPGSLERECKEEQCSFEEAREIFKDAERTKLFWISYSDGDQCASSPCQNGGSCKDQLQSYICFCLPAFEGRNCETHKDDQLICVNENGGCEQYCSDHTGTKRSCRCHEGYSLLADGVSCTPTVEYPCGKIPILEKRNASKPQGR
heavy: IVGGKVCPKGECPWQVLLLVNGAQLCGGTLINTIWVVSAAHCFDKIKNWRNLIAVLGEHDLSEHDGDEQARRVAQVIIPSTYVPGTTNHDIALLRLHQPVVLTDHVVPLCLPERTFSERTLAFVRFSLVSGWGRLLDRGATALELMVLNVPRLMTQDCLQQSRKVGDSPNITEYMFCAGYSDGSKDSCKGDSGGPHATHYRGTWYLTGIVSWGQGCATVGHFGVYTRVSQYIEWLQKLMRSEPRPGVLLRAPFP

Kd [7]: 18.3 nM
B4: A175S/Q286R/Q366V-FVIIa (enzyme)
light: ANAFLEELRPGSLERECKEEQCSFEEAREIFKDAERTKLFWISYSDGDQCASSPCQNGGSCKDQLQSYICFCLPAFEGRNCETHKDDQLICVNENGGCEQYCSDHTGTKRSCRCHEGYSLLADGVSCTPTVEYPCGKIPILEKRNASKPQGR
heavy: IVGGKVCPKGECPWQVLLLVNGSQLCGGTLINTIWVVSAAHCFDKIKNWRNLIAVLGEHDLSEHDGDEQSRRVAQVIIPSTYVPGTTNHDIALLRLHQPVVLTDHVVPLCLPERTFSERTLAFVRFSLVSGWGRLLDRGATALELMVLNVPRLMTQDCLQQSRKVGDSPNITEYMFCAGYSDGSKDSCKGDSGGPHATHYRGTWYLTGIVSWGVGCATVGHFGVYTRVSQYIEWLQKLMRSEPRPGVLLRAPFP

Kd [7]: 8.6 nM
B5: FVIIa variant S222A/Q286R/Q366V (enzyme)
light: ANAFLEELRPGSLERECKEEQCSFEEAREIFKDAERTKLFWISYSDGDQCASSPCQNGGSCKDQLQSYICFCLPAFEGRNCETHKDDQLICVNENGGCEQYCSDHTGTKRSCRCHEGYSLLADGVSCTPTVEYPCGKIPILEKRNASKPQGR
heavy: IVGGKVCPKGECPWQVLLLVNGAQLCGGTLINTIWVVSAAHCFDKIKNWRNLIAVLGEHDLSEHDGDEQARRVAQVIIPSTYVPGTTNHDIALLRLHQPVVLTDHVVPLCLPERTFSERTLAFVRFSLVSGWGRLLDRGATALELMVLNVPRLMTQDCLQQSRKVGDSPNITEYMFCAGYSDGSKDSCKGDSGGPHATHYRGTWYLTGIVSWGVGCATVGHFGVYTRVSQYIEWLQKLMRSEPRPGVLLRAPFP
